Assay results reported in patent US20160205946A1, “ENZYMATIC IN SITU PREPARATION OF PERACID-BASED REMOVABLE ANTIMICROBIAL COATING COMPOSITIONS AND METHODS OF USE” (THE CHEMOURS COMPANY FC, LLC, priority 2009, published 2016).

B1: T. maritima perhydrolase spray-dried enzyme powder: Spray-dried wild type acetyl xylan esterase from Thermotoga maritima, 27.8 wt % protein (protein, UniProt Q9WXT2 1-325, looked up)
Cephalosporin-C deacetylase: MAFFDLPLEELKKYRPERYEEKDFDEFWEETLAESEKFPLDPVFERMESHLKTVEAYDVTFSGYRGQRIKGWLLVPKLEEEKLPCVVQYIGYNGGRGFPHDWLFWPSMGYICFVMDTRGQGSGWLKGDTPDYPEGPVDPQYPGFMTRGILDPRTYYYRRVFTDAVRAVEAAASFPQVDQERIVIAGGSQGGGIALAVSALSKKAKALLCDVPFLCHFRRAVQLVDTHPYAEITNFLKTHRDKEEIVFRTLSYFDGVNFAARAKIPALFSVGLMDNICPPSTVFAAYNYYAGPKEIRIYPYNNHEGGGSFQAVEQVKFLKKLFEKG
modifications: spray-dried powder
notes: Spray-dried wild type acetyl xylan esterase from Thermotoga maritima, 27.8 wt % protein
B2: T. maritima C277S perhydrolase spray-dried enzyme powder: Spray-dried T. maritima acetyl xylan esterase C277S mutant, 25.5 wt % protein (protein, UniProt Q9WXT2 1-325, looked up, variant C277S)
Cephalosporin-C deacetylase: MAFFDLPLEELKKYRPERYEEKDFDEFWEETLAESEKFPLDPVFERMESHLKTVEAYDVTFSGYRGQRIKGWLLVPKLEEEKLPCVVQYIGYNGGRGFPHDWLFWPSMGYICFVMDTRGQGSGWLKGDTPDYPEGPVDPQYPGFMTRGILDPRTYYYRRVFTDAVRAVEAAASFPQVDQERIVIAGGSQGGGIALAVSALSKKAKALLCDVPFLCHFRRAVQLVDTHPYAEITNFLKTHRDKEEIVFRTLSYFDGVNFAARAKIPALFSVGLMDNISPPSTVFAAYNYYAGPKEIRIYPYNNHEGGGSFQAVEQVKFLKKLFEKG
modifications: spray-dried powder
notes: Spray-dried T. maritima acetyl xylan esterase C277S mutant, 25.5 wt % protein

Test: pNPA microplate assay (enzyme specific activity)
Format: biochemical
Details: 30 °C, pH 7.2
Description: Into each of four wells of a 96-well microplate were added 170 μL of potassium phosphate buffer (50 mM, pH 7.2) and either 10 μL of 0.1 mg total protein/mL of cell lysate, or 10 μL of 0.02 mg total protein/mL of a spray-dried enzyme solution. The plate was covered and placed in a microplate reader (Molecular Devices SPECTRAmax® 384 Plus), then mixed for several seconds and equilibrated at 30° C. for 10 minutes. To each well of the plate was then simultaneously added 20 μL of a 30 mM pNPA solution prepared by mixing (immediately prior to use) 0.6 mL of 100 mM pNPA in acetonitrile with 1.4 mL of 50 mM potassium phosphate buffer (pH 7.2). The change in absorbance at 400 nm was measured over 1 minute of reaction time. The background rate of pNPA hydrolysis (subtracted from the rate of hydrolysis measured in the presence of enzyme) was separately measured in four wells by substituting 10 μL/well of potassium phosphate buffer (50 mM, pH 7.2) for cell lysate or enzyme-containing solution. The extinction coefficient for para-nitrophenol, measured at pH 7.2 in a 1-cm path length cell, was 10,909 L·cm^−1·mol^−1. One pNPA Unit of enzyme activity is equivalent to the amount of protein that catalyzes the hydrolysis of one micromole of pNPA in one minute.

Molecule	Specific activity of spray-dried enzyme powder
B1	86.1 pNPA U/mg protein
B2	129.5 pNPA U/mg protein
